To fix the notation:
B1: DnaJ homolog subfamily C member 5, residues 16 to 77; numbered along this chain, Q9H3Z4 (parent)
chain: LYHVLGLDKNATSDDIKKSYRKLALKYHPDKNPDNPEAADKFKEINNAHAILTDATKRNIYD

Here are results for 43 variants from the Human Domainome abundance scans (Beltran et al. 2025).

± gives the uncertainty stated by the source.

The variants in this data set derive from B1. Put plainly: abundance fitness (aPCA) (normalised: wild type 0, dead -1); higher = more abundant; growth selection in yeast, the domain comes from the species named. The following applies: Homo sapiens.
With LYHVLGLDKNATSDDIKKSYRKLALKYHPDKNPDNPEAADKFKEINNAHAILTDATKRCIYD [N59C], the abundance fitness worked out at 0.032 ± 0.11. As for LYHVLGLDKNATSDDIKKSYRKLALKYHPDKNPDNPEAADKFKEINNAHAILTDATKRHIYD [N59H], the abundance fitness was -0.125 ± 0.14. Regarding LYHVLGLDKNATSDDIKKSYRKLALKYHPDKNPDNPEAADKFKEINNAHAILTDATKRWIYD [N59W], the abundance fitness is -0.396 ± 0.087.

Consider LYHVLGLDKNATSDDIKKSYRKLALKYHPDKNPDNPEAADKFKEINNAHAILTDATKRVIYD [N59V], for which the abundance fitness is -0.121 ± 0.1. Consider LYHVLGLDKNATSDDIKKSYRKLALKYHPDKNPDNPEAADKFKEINNAHAILTDATKRMIYD [N59M], for which the abundance fitness was -0.179 ± 0.1. In the case of LYHVLGLDKNATSDDIKKSYRKLALKYHPDKNPDNPEAADKFKEINNAHAILTDATKRFIYD [N59F] it was -0.151 ± 0.16; in that of LYHVLGLDKNATSDDIKKSYRKLALKYHPDKNPDNPEAADKFKEINNAHAILTDATKRDIYD [N59D], -0.234 ± 0.19. In the case of LYHVLGLDKNATSDDIKKSYRKLALKYHPDKNPDNPEAADKFKEINNAHAILTDATKREIYD [N59E], the abundance fitness is 0.152 ± 0.11. Regarding LYHVLGLDKNATSDDIKKSYRKLALKYHPDKNPDNPEAADKFKEINNAHAILTDATKRRIYD [N59R], the abundance fitness is -0.107 ± 0.072. The value for LYHVLGLDKNATSDDIKKSYRKLALKYHPDKNPDNPEAADKFKEINNAHAILTDATKRIIYD [N59I] was -0.044 ± 0.12; that for LYHVLGLDKNATSDDIKKSYRKLALKYHPDKNPDNPEAADKFKEINNAHAILTDATKRSIYD [N59S] was -0.029 ± 0.089. On to LYHVLGLDKNATSDDIKKSYRKLALKYHPDKNPDNPEAADKFKEINNAHAILTDATKRQIYD [N59Q], for which the abundance fitness came out at 0.007 ± 0.1.

Take LYHVLGLDKNATSDDIKKSYRKLALKYHPDKNPDNPEAADKFKEINNAHAILTDATKRAIYD [N59A]: the abundance fitness was 0.197 ± 0.12.

As for LYHVLGLDKNATSDDIKKSYRKLALKYHPDKNPDNPEAADKFKEINNAHAILTDATKRYIYD [N59Y], the abundance fitness was -0.471 ± 0.17. The value for LYHVLGLDKNATSDDIKKSYRKLALKYHPDKNPDNPEAADKFKEINNAHAILTDATKRLIYD [N59L] was -0.139 ± 0.063; that for LYHVLGLDKNATSDDIKKSYRKLALKYHPDKNPDNPEAADKFKEINNAHAILTDATKRGIYD [N59G] was 0.101 ± 0.077. In the case of LYHVLGLDKNATSDDIKKSYRKLALKYHPDKNPDNPEAADKFKEINNAHAILTDATKMNIYD [R58M] it was -0.471 ± 0.12. Consider LYHVLGLDKNATSDDIKKSYRKLALKYHPDKNPDNPEAADKFKEINNAHAILTDATKFNIYD [R58F], for which the abundance fitness was -0.617 ± 0.2.

LYHVLGLDKNATSDDIKKSYRKLALKYHPDKNPDNPEAADKFKEINNAHAILTDATKANIYD [R58A]: the abundance fitness was -0.044 ± 0.087.

On to LYHVLGLDKNATSDDIKKSYRKLALKYHPDKNPDNPEAADKFKEINNAHAILTDATKHNIYD [R58H], for which the abundance fitness was -0.275 ± 0.16. In the case of LYHVLGLDKNATSDDIKKSYRKLALKYHPDKNPDNPEAADKFKEINNAHAILTDATKPNIYD [R58P] it was -0.119 ± 0.096. Turning to LYHVLGLDKNATSDDIKKSYRKLALKYHPDKNPDNPEAADKFKEINNAHAILTDATKGNIYD [R58G], the abundance fitness was -0.21 ± 0.083. In the case of LYHVLGLDKNATSDDIKKSYRKLALKYHPDKNPDNPEAADKFKEINNAHAILTDATKENIYD [R58E] it was 0.109 ± 0.12; in that of LYHVLGLDKNATSDDIKKSYRKLALKYHPDKNPDNPEAADKFKEINNAHAILTDATKNNIYD [R58N], -0.114 ± 0.33. The value for LYHVLGLDKNATSDDIKKSYRKLALKYHPDKNPDNPEAADKFKEINNAHAILTDATKVNIYD [R58V] was -0.363 ± 0.083. In the case of LYHVLGLDKNATSDDIKKSYRKLALKYHPDKNPDNPEAADKFKEINNAHAILTDATKDNIYD [R58D], the abundance fitness was -0.348 ± 0.34. Regarding LYHVLGLDKNATSDDIKKSYRKLALKYHPDKNPDNPEAADKFKEINNAHAILTDATKQNIYD [R58Q], the abundance fitness is -0.161 ± 0.16. The value for LYHVLGLDKNATSDDIKKSYRKLALKYHPDKNPDNPEAADKFKEINNAHAILTDATKLNIYD [R58L] was -0.43 ± 0.075. In the case of LYHVLGLDKNATSDDIKKSYRKLALKYHPDKNPDNPEAADKFKEINNAHAILTDATKCNIYD [R58C] it was -0.442 ± 0.15; in that of LYHVLGLDKNATSDDIKKSYRKLALKYHPDKNPDNPEAADKFKEINNAHAILTDATKYNIYD [R58Y], -0.575 ± 0.23; in that of LYHVLGLDKNATSDDIKKSYRKLALKYHPDKNPDNPEAADKFKEINNAHAILTDATKWNIYD [R58W], -0.636 ± 0.08. On to LYHVLGLDKNATSDDIKKSYRKLALKYHPDKNPDNPEAADKFKEINNAHAILTDATKSNIYD [R58S], for which the abundance fitness is -0.114 ± 0.072. In the case of LYHVLGLDKNATSDDIKKSYRKLALKYHPDKNPDNPEAADKFKEINNAHAILTDATKINIYD [R58I] it was -0.503 ± 0.13; in that of LYHVLGLDKNATSDDIKKSYRKLALKYHPDKNPDNPEAADKFKEINNAHAILTDATFRNIYD [K57F], -1.01 ± 0.13; in that of LYHVLGLDKNATSDDIKKSYRKLALKYHPDKNPDNPEAADKFKEINNAHAILTDATWRNIYD [K57W], -0.99 ± 0.13. In the case of LYHVLGLDKNATSDDIKKSYRKLALKYHPDKNPDNPEAADKFKEINNAHAILTDATCRNIYD [K57C] it was -0.672 ± 0.14; in that of LYHVLGLDKNATSDDIKKSYRKLALKYHPDKNPDNPEAADKFKEINNAHAILTDATTRNIYD [K57T], -0.415 ± 0.13. In the case of LYHVLGLDKNATSDDIKKSYRKLALKYHPDKNPDNPEAADKFKEINNAHAILTDATNRNIYD [K57N] it was -0.575 ± 0.33; in that of LYHVLGLDKNATSDDIKKSYRKLALKYHPDKNPDNPEAADKFKEINNAHAILTDATPRNIYD [K57P], -0.593 ± 0.16; in that of LYHVLGLDKNATSDDIKKSYRKLALKYHPDKNPDNPEAADKFKEINNAHAILTDATRRNIYD [K57R], -0.059 ± 0.081. Take LYHVLGLDKNATSDDIKKSYRKLALKYHPDKNPDNPEAADKFKEINNAHAILTDATARNIYD [K57A]: the abundance fitness is -0.079 ± 0.093. On to LYHVLGLDKNATSDDIKKSYRKLALKYHPDKNPDNPEAADKFKEINNAHAILTDATQRNIYD [K57Q], for which the abundance fitness is -0.1 ± 0.12.

In the case of LYHVLGLDKNATSDDIKKSYRKLALKYHPDKNPDNPEAADKFKEINNAHAILTDATMRNIYD [K57M], the abundance fitness is -0.43 ± 0.17.
